{
  "source": "paper PMC4967043",
  "target": "(SIM)m, m = 1",
  "assay": "ITC",
  "data": [
    {"substance": "(SUMO)m, m = 1 (from UniProt P55854 1-92) (natural protein)", "values": [
      {"measurement": "Kd", "value": 10, "unit": "µM"}
    ]}
  ]
}
